B1: KRT34 (parent)
chain: YQSYFKTIEELQQKILCAKAENAR

Variants of: B1
Test: protein stability index of a GFP-peptide fusion (GPS, HEK-293T) (PSI 1-6); higher = more stable
Details: c terminus: a fixed tail appended
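Further: lentivirally expressed fusions sorted by FACS into six bins by GFP to DsRed ratio, PSI derived from sequencing read proportions per bin multiplied by bin number.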

| Variant | protein stability index |
| --- | --- |
| K14Q | 2.14 |
| K14Y | 1.46 |
| K14G | 1.69 |
| K14P | 1.97 |
| K14A | 1.41 |
| K14T | 1.56 |
| K14N | 1.53 |
| S3P | 1.97 |
| S3Y | 2.13 |
| S3K | 1.96 |
| S3H | 1.5 |
| S3V | 1.62 |
| S3T | 1.61 |
| S3W | 1.54 |
| S3A | 2.69 |
| S3F | 1.8 |
| S3D | 1.98 |
| S3G | 1.85 |
| S3I | 1.61 |
| T7A | 2.2 |
| T7P | 1.77 |
| T7H | 2.35 |
| T7Q | 2.07 |
| T7M | 1.67 |

| Variant | protein stability index |
| --- | --- |
| T7C | 1.64 |
| T7V | 1.72 |
| T7N | 2.34 |
| A18P | 2.21 |
| I8T | 1.35 |
| I8L | 1.98 |
| I8M | 2.26 |
| I8R | 2.09 |
| I8A | 2.26 |
| I8G | 1.48 |
| I15S | 1.81 |
| I15L | 1.95 |
| I15K | 2.71 |
| I15F | 1.6 |
| I15Q | 1.71 |
| I15Y | 2.25 |
| I15W | 2.2 |
| I15R | 1.66 |
| K19A | 1.87 |
| K19D | 2.48 |
| K19S | 1.9 |
| K19P | 2.15 |
| K19T | 1.39 |
| K19N | 1.83 |

| Variant | protein stability index |
| --- | --- |
| E9H | 2.46 |
| E9R | 1.75 |
| E9M | 3.64 |
| Y1P | 3.59 |
| Y1M | 2.1 |
| Y1E | 4.59 |
| Y1H | 2.56 |
| Y1D | 4.17 |
| Y1A | 3.3 |
| Y1G | 3.95 |
| Y1V | 2.27 |
| Y1T | 3.08 |
| Y1I | 1.52 |
| Y1F | 1.96 |
| E10N | 2.19 |
| E10T | 1.27 |
| E10A | 1.95 |
| E10R | 2.49 |
| E10L | 1.91 |
| E10Q | 1.19 |
| E10S | 1.83 |
| E10F | 2.41 |
| E10M | 2 |
| Q12K | 2 |

| Variant | protein stability index |
| --- | --- |
| Q12G | 1.97 |
| Q12L | 1.9 |
| Q12E | 1.48 |
| Q12Y | 1.77 |
| Q12H | 2.34 |
| Q12F | 2.02 |
| Q12I | 3.66 |
| Q12M | 2.15 |
| Y4S | 2 |
| Y4T | 2.98 |
| Y4H | 2.4 |
| Y4D | 2.24 |
| Y4G | 3.06 |
| Y4E | 1.63 |
| Y4I | 2.27 |
| F5R | 1.6 |
| F5W | 1.32 |
| F5M | 2.62 |
| F5K | 2.84 |
| F5G | 3.23 |
| F5Y | 1.62 |
| F5V | 1.9 |
| F5P | 1.89 |
| Q2L | 1.9 |

| Variant | protein stability index |
| --- | --- |
| Q2A | 2.1 |
| Q2W | 2.39 |
| Q2P | 2.26 |
| Q2Y | 2.04 |
| Q2H | 3.43 |
| Q2V | 1.54 |
| E21N | 1.69 |
| E21H | 2.24 |
| E21R | 2.12 |
| C17D | 1.84 |
| C17I | 2.16 |
| C17S | 2.19 |
| C17G | 2.32 |
| C17H | 2.06 |
| C17W | 2.94 |
| C17T | 2.04 |
| A23T | 1.64 |
| A23G | 1.96 |
| A23Y | 1.87 |
| A23N | 1.55 |
| A23E | 2.71 |
| A23R | 2.06 |
| N22C | 2.04 |
| N22P | 1.89 |

| Variant | protein stability index |
| --- | --- |
| N22F | 2.17 |
| N22L | 2.26 |
| N22A | 1.69 |
| N22H | 1.81 |
| Q13G | 1.96 |
| Q13H | 2.29 |
| Q13V | 1.96 |
| Q13Y | 1.54 |
| Q13R | 2.16 |
| Q13T | 1.74 |
| Q13P | 1.78 |
| Q13M | 1.82 |
| Q13C | 1.82 |
| Q13N | 1.92 |
| Q13I | 1.5 |
| L16H | 2.12 |
| L16W | 1.29 |
| A20E | 2.14 |
| A20P | 1.79 |
| A20T | 1.87 |
| A20H | 2.06 |
| A20M | 2.57 |
| A20D | 2.18 |
| A20V | 1.71 |

| Variant | protein stability index |
| --- | --- |
| A20L | 2.34 |
| A20N | 1.71 |
| A20F | 1.4 |
| A20Y | 1.3 |
| A20I | 1.86 |
| L11D | 1.5 |
| L11Y | 2.08 |
| L11E | 1.88 |
| L11T | 1.62 |
| L11R | 1.83 |
| R24C | 1.59 |
| R24S | 1.74 |
| R24K | 1.93 |
| R24I | 2.17 |
| R24A | 1.52 |
| R24Q | 3.56 |
| K6V | 2.83 |
| K6L | 2.3 |
| K6R | 1.82 |
| K6G | 2.09 |
| K6A | 1.96 |
| K6I | 1.91 |
| K6C | 1.51 |

Source: the supplement of paper PMC10567573
